Holding throughout (test): FRET or BRET
The target in test [1] is YFP-preIQ3-IQD-PCRDD (not stated (human or rat cDNA cloned)) (UniProt Q01668).
For test [2], the target named is YFP-preIQ3-IQD-PCRDC (not stated (human or rat cDNA cloned) | human).
Test [3] addresses YFP-preIQ3-IQD-PCRDS (not stated (human or rat cDNA cloned) | mouse).

Sequence of UniProt Q01668 (Q01668 whole entry): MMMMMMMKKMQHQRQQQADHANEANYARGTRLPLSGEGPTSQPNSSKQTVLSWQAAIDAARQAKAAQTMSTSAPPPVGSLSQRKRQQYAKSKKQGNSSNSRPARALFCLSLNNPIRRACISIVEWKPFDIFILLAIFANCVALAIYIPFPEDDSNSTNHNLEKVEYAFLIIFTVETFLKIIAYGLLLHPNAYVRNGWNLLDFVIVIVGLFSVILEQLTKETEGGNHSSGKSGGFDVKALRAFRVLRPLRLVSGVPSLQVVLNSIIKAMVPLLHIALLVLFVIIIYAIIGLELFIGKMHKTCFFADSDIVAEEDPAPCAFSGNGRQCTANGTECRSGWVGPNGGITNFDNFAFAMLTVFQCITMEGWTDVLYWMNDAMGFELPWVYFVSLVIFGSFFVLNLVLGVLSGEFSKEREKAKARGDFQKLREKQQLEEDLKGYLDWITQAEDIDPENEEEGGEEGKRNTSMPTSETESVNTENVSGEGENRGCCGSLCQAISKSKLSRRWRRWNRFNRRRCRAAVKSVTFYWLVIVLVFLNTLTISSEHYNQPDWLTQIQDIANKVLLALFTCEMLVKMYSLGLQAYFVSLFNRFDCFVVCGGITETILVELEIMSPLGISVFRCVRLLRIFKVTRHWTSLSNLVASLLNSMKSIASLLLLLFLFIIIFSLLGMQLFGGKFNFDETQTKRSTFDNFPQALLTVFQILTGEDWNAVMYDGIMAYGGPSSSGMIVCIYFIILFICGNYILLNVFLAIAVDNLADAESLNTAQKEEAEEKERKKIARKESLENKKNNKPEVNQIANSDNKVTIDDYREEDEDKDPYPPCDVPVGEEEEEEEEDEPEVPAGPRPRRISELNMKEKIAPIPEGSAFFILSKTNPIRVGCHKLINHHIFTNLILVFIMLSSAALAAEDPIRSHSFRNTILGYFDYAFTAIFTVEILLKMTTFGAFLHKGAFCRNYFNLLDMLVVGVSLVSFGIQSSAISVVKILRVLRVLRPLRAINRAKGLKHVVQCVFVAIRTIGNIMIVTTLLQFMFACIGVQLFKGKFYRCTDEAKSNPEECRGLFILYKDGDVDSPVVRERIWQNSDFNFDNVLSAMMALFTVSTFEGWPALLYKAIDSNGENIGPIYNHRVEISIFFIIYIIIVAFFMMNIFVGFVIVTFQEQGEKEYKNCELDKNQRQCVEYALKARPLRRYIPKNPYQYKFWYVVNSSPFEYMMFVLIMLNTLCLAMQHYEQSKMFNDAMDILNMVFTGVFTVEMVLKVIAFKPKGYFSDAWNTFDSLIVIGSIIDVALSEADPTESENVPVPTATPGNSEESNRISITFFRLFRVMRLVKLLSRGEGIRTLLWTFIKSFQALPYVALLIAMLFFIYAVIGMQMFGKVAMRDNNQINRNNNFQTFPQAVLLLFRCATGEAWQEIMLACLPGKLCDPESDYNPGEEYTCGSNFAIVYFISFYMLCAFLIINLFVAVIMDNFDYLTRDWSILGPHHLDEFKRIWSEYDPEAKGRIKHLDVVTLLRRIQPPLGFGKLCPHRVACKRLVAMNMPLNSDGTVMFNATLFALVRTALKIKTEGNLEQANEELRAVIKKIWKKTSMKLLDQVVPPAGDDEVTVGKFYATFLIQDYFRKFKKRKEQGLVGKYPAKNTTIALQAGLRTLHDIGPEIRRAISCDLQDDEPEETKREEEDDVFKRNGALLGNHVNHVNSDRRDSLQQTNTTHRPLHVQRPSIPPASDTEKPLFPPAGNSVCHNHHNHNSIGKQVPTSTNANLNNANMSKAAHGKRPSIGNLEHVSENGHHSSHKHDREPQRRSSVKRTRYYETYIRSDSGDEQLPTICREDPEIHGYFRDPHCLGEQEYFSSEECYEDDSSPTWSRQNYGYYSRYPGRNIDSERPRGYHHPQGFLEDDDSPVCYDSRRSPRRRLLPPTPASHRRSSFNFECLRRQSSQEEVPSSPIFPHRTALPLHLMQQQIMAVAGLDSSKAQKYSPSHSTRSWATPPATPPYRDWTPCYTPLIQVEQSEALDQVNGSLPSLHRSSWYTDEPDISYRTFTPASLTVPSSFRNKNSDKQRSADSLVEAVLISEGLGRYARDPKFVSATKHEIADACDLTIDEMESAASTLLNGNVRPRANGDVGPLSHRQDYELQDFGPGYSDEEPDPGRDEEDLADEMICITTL

As to “PCRDC-DCRDF peptide (PCRD of CaV1.2 joined to DCRD of CaV1.4)”, in test [1], the relative Kd (normalised to Kd of PD/DF) turned out to be 2.3. As to “CFP-DCRDC (distal C-terminal regulatory domain of CaV1.2) (from UniProt Q13936 1-2221) (domain or fragment)”, in test [2], the relative Kd (normalised to Kd of PD/DF) was found to be 11.2. In test [3], “CFP-DCRDS (distal C-terminal regulatory domain of CaV1.1) (from UniProt Q02789 1-1852) (domain or fragment)” registered a relative Kd (normalised to Kd of PD/DF) of 18.7.

These data come from paper doi:10.1101/2020.01.26.920348.
